Assay results published in article PMC6214142, “Transcription of the Human 5-Hydroxytryptamine Receptor 2B (HTR2B) Gene Is under the Regulatory Influence of the Transcription Factors NFI and RUNX1 in Human Uveal Melanoma”.

Columns and labels:
NFIC = NFIC (Homo sapiens, UniProt P08651 1-508); experiment: EMSA; EMSA: 10 mM Hepes pH 7.9, 10% glycerol, 0.1 mM EDTA, 0.5 mM DTT, 0.25 mM PMSF, 50 mM KCl, 2 ug poly(dI:dC); Tris-glycine gels at 4 C; footprinting binding 5 min at room temperature with 5 ug poly(dI:dC); conditions: protein: recombinant; chain copies: 2; label: 5' 32P as probe; blunt
NFIC, sequence (P08651 whole entry): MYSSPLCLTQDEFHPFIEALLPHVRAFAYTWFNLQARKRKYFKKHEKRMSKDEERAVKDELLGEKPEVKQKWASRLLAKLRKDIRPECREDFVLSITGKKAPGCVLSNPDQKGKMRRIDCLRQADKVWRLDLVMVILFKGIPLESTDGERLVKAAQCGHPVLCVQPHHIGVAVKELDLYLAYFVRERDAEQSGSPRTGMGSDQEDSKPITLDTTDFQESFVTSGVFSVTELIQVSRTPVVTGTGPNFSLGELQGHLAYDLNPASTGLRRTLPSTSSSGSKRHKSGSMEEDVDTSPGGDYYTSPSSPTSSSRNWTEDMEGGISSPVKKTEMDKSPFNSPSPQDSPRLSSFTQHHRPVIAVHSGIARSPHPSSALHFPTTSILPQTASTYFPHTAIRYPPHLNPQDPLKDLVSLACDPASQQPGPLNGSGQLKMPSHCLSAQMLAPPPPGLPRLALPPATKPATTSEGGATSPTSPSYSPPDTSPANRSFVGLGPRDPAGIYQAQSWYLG

NFIA = NFIA (Homo sapiens, UniProt Q12857 1-509); experiment: as above; conditions: protein: recombinant; chain copies: 2; label: 5' 32P as probe; blunt
NFIA, sequence (Q12857 whole entry): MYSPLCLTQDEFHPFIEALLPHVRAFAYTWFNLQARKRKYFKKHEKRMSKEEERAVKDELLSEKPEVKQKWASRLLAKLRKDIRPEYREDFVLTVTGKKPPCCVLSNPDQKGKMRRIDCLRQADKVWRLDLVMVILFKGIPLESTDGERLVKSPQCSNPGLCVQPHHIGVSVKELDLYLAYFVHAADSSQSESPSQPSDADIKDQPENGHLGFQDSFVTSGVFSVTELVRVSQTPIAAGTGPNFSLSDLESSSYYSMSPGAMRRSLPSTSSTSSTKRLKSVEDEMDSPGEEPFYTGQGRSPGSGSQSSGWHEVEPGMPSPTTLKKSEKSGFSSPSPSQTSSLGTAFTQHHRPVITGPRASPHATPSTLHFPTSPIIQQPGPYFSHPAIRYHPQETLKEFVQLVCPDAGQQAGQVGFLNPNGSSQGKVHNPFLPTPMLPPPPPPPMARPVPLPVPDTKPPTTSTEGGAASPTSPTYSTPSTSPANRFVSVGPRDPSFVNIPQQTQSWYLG

NFIB = NFIB (Homo sapiens, UniProt O00712 1-420); experiment: as above; conditions: protein: recombinant; chain copies: 2; label: 5' 32P as probe; blunt
NFIX = NFIX (Homo sapiens, UniProt Q14938 1-502); experiment: EMSA; EMSA: 10 mM Hepes pH 7.9, 10% glycerol, 0.1 mM EDTA, 0.5 mM DTT, 0.25 mM PMSF, 50 mM KCl, 2 ug poly(dI:dC); Tris-glycine gels at 4 C; footprinting binding 5 min

Measured: binding result

B1: NFI high affinity probe (dsDNA)
DNA 1: TTATTTTGGATTGAAGCCAATATGAG
DNA 2: CTCATATTGGCTTCAATCCAAAATAA
binds: all assays above
